Source: doi:10.1101/2024.07.22.604500

Assays:
[1] = target: H1.0–K63-Ub3 chromatosome (CH3) (UniProt P07305)
[2] = target: H1.0–Ub chromatosome (CH1) (UniProt P07305)
[3] = target: H1.0–K63-Ub2 chromatosome (CH2) (UniProt P07305)
[4] = target: unmodified H1.0-containing chromatosome (CH0) (UniProt P07305)

RNF168^1–193 (from UniProt Q8IYW5 1-193) (domain or fragment)
H2A conversion in the in vitro ubiquitylation assay, 5 and 10 min (28% and 48%) [1]: 48% | H2A conversion in the in vitro ubiquitylation assay, 5 and 10 min (2% and 3%) [2]: 3% | H2A conversion in the in vitro ubiquitylation assay, 5 and 10 min (13% and 25%) [3]: 25% | H2A conversion in the in vitro ubiquitylation assay, 5 and 10 min (3% and 5%) [4]: 5%
